Assay results taken from the DeepSol protein solubility set.

Assay: soluble on expression in E. coli; label from the status in PepcDB or PDB records

Sequence	soluble on expression in E. coli
MAHHHHHHMKKRYGNAGDWAVVTGASEGIGYAMALDLGRRGFNVCVIARTLSKLENVVEELKQLGVQGKAISFDFASATPKQYDDMFAELDKIEIAVLVNNVGVNYTYTNYFDEVDLETDLRLLKVNCESSVRMTKYVVPKMKAKRCGAIVMLGSVSAVTPAPLLCTYAGTKAFNLSFGSGLYYELKQFGIDVLAVSPNMVVSKMTQGLSSRKPRETFLMVNADRMAHQTLDKLGSVPQTPGHCNHAVLEAIVRALPTGYVSNKILETHKSIKRKAERKRE	not soluble
MGACPRFERASARGMIARNPIKQDPAMRNTQDDHSRFLSLVLRHQPETIGLQLDDQGWADIGELLARLAAKGRNLGRKQLEKIVLDNDKQRFAISEDGLRIRANQGHSIKIDLGLAACEPPDRLYHGTASRFLDAILAEGLRPGQRQHVHLSADGQTARKVGARHGKPVVLEIDARAMRQAGLAFYRSDNGVWLIDGVPPVFIRQTEARLEHHHHHH	soluble
SLPWLHRETARSFGGAGSTAGYEQVTAYTLTGQLQSRHLNLPQLDCDYDWNDNGQLIRISGPQESREYRYSDTGRLTGVHTTAANLDIDIPYATDPAGNRLPDPELHPDSTLTAWPDNRIAEDAHYVYRYDEYGRLTEKTDRIPEGVIRMHDERTHHYHYDNQHRLVFYTRIQYGEPLVESRYLYDPLGRRTGKRVWRRERDLTGWMSLSRKPEVTWYGWDGDRLTTVQTGTTRIQTVYRPGSFTPLIRIETENGEREKAQRRSLAEKLQQEGSEDGHGVVFPAELVRMLDRLEEEIRADRVSSESRAWLAQCGLTVEQLEKQVEPEYTPARTLHLYHCDHRGLPLALISEDGNTAWSAEYDEWGNQLNEENPHHLHQPYRLPGQQHDEESGLYYNRHRYYDPLQGRYITPDPIGLRGGWNMYQYPLNPIQVIDPMGLDAIENMTSGGLIYAVSGVPGLIVANSITNSAYQFGYDMDAIVGGAHNGAADAMRYCYLMCRMTKT	not soluble
MGHHHHHHSHMRRFQRSTVIDAPRELVWAFHEQADVLEQLTPPWLPVEVVRREGGLGPGAVSEFRLWLGPVPIRWVATHNDDYEPGRCFCDRQSQGPFADWLHRHIFSREGDRTRLIDEVEYALPGGWLPELSVCPVVDAQLERLFAYRQQVTKQWCESRRDAFLQSNRTTKGLQSL	not soluble
MHRSFPRLVRSQGNLLKGMFGKSGEKEAVKQLTLEEQESLRKTLPSIRARESTQVTASADSVTEFDDDLLTMSRIDTDAIRARGFLKYTQNYVPGVDVKNQVLEAASSCLRSAGVKSENVDQYKFVEGDNSVKFELLNRLGKSIEHWPTNGKLLHLETVADVVEFYQTPVKNVTKYTEMARDENKPKNVSIMEHAARFHPEDTHMYHGGITAFPGSGGEVLSLRQKRLLRQFQPKKEWFDYDDQTFDYTRPDKNMPWDPEVANQMDKYTDKRYNLKTKQFTRIRQ	not soluble
LEQARTMSVDEMAANPEINRLMMARIEAAQDSLAAYEKVKYITLLAEPFTLEKGELTETMKLKRRVINEHYAEAIEKMYL	not soluble
MAFRKRRHDSEGDSDEERLPINKDEDEDLKAEPAKKSKNMWSDMLLEEQLLEKGQQINLDRTSRKQPNVSRGPESYLMPQDEFQRKQSRNANQKKKNEVFDKPVVLVTPASDDLFGDAPSALNEDFGVKKNDVKLPKDDEAGWWGKKGANKRYNDRMGYHSGGPRQPYPRKTTGQLMASEYSLESMVAAEFAPNLSTKELGTQMAAAMGEKDPDTVKKITNAIGSELSIKLFNETKEIEQNGGMKTADGSRRRTPGGVFITLFKMDSSVSREIKDGIFGDMRNAEKERTKKKKGEKQFTRQLEDMKKTMELAAQAETDLANEEQLATAVDAPFSDDAVDMV	not soluble
MSEKYIVTWDMLQIHARKLASRLMPSEQWKGIIAVSRGGLVPGALLARELGIRHVDTVAISSYDHDNQRELKVLKRAEGDGEGFIVIDDLVDTGGTAVAIREMYPKAHFVTIFAKPAGRPLVDDYVVDIPQDTWIEQPWDMGVVFVPPISGR	soluble
MFLGTYTPKLDDKGRLTLPAKFRDALAGGLMVTKSQDHSLAVYPRAAFEQLARRASKAPRSNPEARAFLRNLAAGTDEQHPDSQGRITLSADHRRYASLSKDCVVIGAVDYLEIWDAQAWQNYQQIHEENFSAASDEALGDIF	not soluble
MPVRKAKAVWEGGLRQGKGVMELQSQAFQGPYSYPSRFEEGEGTNPEELIAAAHAGCFSMALAASLEREGFPPKRVSTEARVHLEVVDGKPTLTRIELLTEAEVPGISSEKFLEIAEAAKEGCPVSRALAGVKEVVLTARLV	soluble
MAHHHHHHMKLFLTVVERHNSTNSSDVTPTDDVALFDPGVWSRTATSEMARRNVSASYVAQQVYRHAALTQLAKVALSSAVCFRYGPRPPPHLDSFLFHKRCRPTGHGRCGTPPAAAAPPVCAPSPLISSSSSSFSVNMAATSPGTGQQRSTAAGASDSATEYDSLLALWLRELLSGTDSSVTVTALLLFVEGTAIDMATGSKVHTPLNIGSGTARQLRTHEDAMAFLHACESTLHHSAAEFPRCPYHVCVAVLVGTHGGSHGKNPVIFLDVAAAAPESAGAHQEVRLREQVALFGRQLGADATTATPHARQRTRKAEDEQWLSLLQSCQLSRASLVGLVYVACEAGHDPFGHSRVEGTDCDPFTLASVLRQRALLEAVNNGVLHPQLRKLSRARNRATARAVKLPASGATTRSRAPASPLKGRPSRGRQRPQQHSPKLPYLARDSVPPRRTQEHSIVFYGVSRCGRSADLLARIEEEEHHARVALSSAEQRAWNLAELRWILRAHPPGKSIDAMLRRFAHNVDGVSRPEQQHPHSVPPRFLPPPLNVAQLATAISRPSTTATRRSSFASATRTPESTSPGGTVRTRVTASMLPTSPSRLALTSTFFTRRITTPLFFREAGSPPQNQDDPRAHSASSHVAVRGHNATELERRRLKSGATFSLATDSPNARACTTARRLSAIETALLARAHSSSQRSLPSPSPCTGEVERLYPLVRAFHVEMCEQDALMAEELMMRSCIEHKEKNCRKTLSVARAESVRRLSVWWPSETGTQPQREPQVPDSPRWRPAKPLPLRIFFQQ	not soluble
TRMAPVIMVPGSSASQNRFDSLITELGKETPKKHSVLKLTVQTDGTIKYSGSIAANDNEPFIVIGFANNRDGKANIDKQAVWLNTAFKALVKTYHFNHFYALGHSNGGLIWTLFLERYLKESPKVHIDRLMTIASPYNMESTSTTAKTSMFKELYRYRTGLPESLTVYSIAGTENYTSDGTVPYNSVNYGKYIFQDQVKHFTEITVTGANTAHSDLPQNKQIVSLIRQYLLAETMPDK	not soluble
ENMLFTVVSLYISTKVLDFILEGYNPKKSVTIISDYYEEIATEIDANLERGITLFNGQGFYMRQDKKILYIVISRDQLLPLTKIVNKYDEKAFFIINDVQSVVGEGFTKQITSE	not soluble
MPFWGAGIKILHISEDFRTVKVRLKLRWWNKNANRTQYGGSIFSLTDPIYSLMLMGILREEYYVWDKEASINFIKPGQSDLFAEFEITDGMLDEIYQMTRNGEKCFPEFITHVKDKQGNVVSEVQRKLYVRKLEHHHHHH	not soluble
MSYTHILVAVAVTPESHQLLAKAVSIARPVQAKVSLITLASDPELYNQFAAPMMEDLRAVMHEETENFLKMLGEKADYPIEQTFIASGELSQHILAVCRKHHVDLVICGNHNHSFFSRASCSAKSVVSASQVDVLLVPLAGD	not soluble
SDSDSGEQSEGELSPGHESFNSKSLALQAQKKILSKMATMAVANLLTDDTSSEILDELYKASREYTKSKKEAHKIIKDVIKIALKIGILYRNHQFSPEEMETVERFKKKMNQAAMTVVSFYEVEYTFDRGILSELLLECRDLLHELVEHHLTMRSHGRIDHVFNHFADVDFLTELYGPSEDYRLNLRKICDGINKLLDEGTL	soluble
MGSDKIHHHHHHMKDRSFDTLQEAVDVLSLTLNGPVTLEDREHRLLAYSKHSHETDSARIETIMNRQVPDRVIEGLWSSGLLQKLNQTDEPIRIPGIPAVGLGNRVAISIRQQQFVLGYIWVLELEEPLTDEQLNDLKDMVSLIRAMLIKQQETRFRRRLEREERWRHLYQGTETVAEVKRRFQAEGEPLPERGVVVQFFCERTIKEEHEQALSFISEKVKSRILVTFAMLIDGKWTVYLTDSLKKPLDEQVVKHFIDQWIRSWNDQFSYANVLAGVGQHCSQLTDVSESFHQAEKVIELKGEFAYELDKVYYFHELGFYRIIVDSVPILESETVQTLAAYDQKQGTELLQTLEAFLDVDGRNQAAAALLHVHPNTLNYRMKRIYELTGLDVKNMKDKVSLYLELKLRRWRNRVE	not soluble
RLSLRAKAKEINLENLEEFVSEVKARNLKAYLAVNSTVNEDRLEEAGNVINAAAKAGVDAVIAWDPAVILKARKSGLRIHISTQANTTNHETAEFYRALGAERIVLSRELSLEEIREIRQRSEVEVETFVHGAMCMAVSGRCHLSAYVLGKSGNCGECTQPCRWEWELHGENNLVMESRGKYLLSAKDLCMIEHIPALLGARIDSFKVEGRLRDPGYLEVVSRCYREAIDACKEGTYTREKVDSWLSKLSSVYNRGFSTGFYFGIPGLEGFSPEKSMNASEKKRRAAGIVENYYPRQHAAAIKLLEEGLEIGNEILIEGSTTYLKQRVTSLIKNGMSLQKAEKGDEVGLAVDGTVRRNDRIFI	not soluble
EYRHLVLNQLRNMGGTRFFVSLNNHQIDVDPLPESERKTLVINQVREVLESELSGIPNIEVEFTQRDKLKVFNNELPIDELPLLWAHYSLSFGDLNPPILVMQVEVAQNEWFYLAAVLPAPYINLETNYFELRQ	not soluble
MLPNNQWQIPINNGLTHQENMAAHAAVMKLRVHDLQSIISQLSLRKPRPQKSEHQKVVVESLRDPHHARQIYQMVISLIFSSLQASNFPNGNYEMQKRPATTSQVRSHPYVLPSRSGASNHLVNHHYQQQQQQQPQPHNLLHQQMMASHHSHLQQQHHPSTVRWLTPELLEEQLRGSMRYGAPAAAAATNAPLHSSFPNHGRSSQQSLQKSEKSNRPKKMYADNFEPLPLPFYDVISVLLKPVELHSSDSPTLKQTKQLQFPFLLTAEHISKISYRADVTPLPRYELQLRFFNLTEPVQGPQKDDFPLNCYARVDDSVVQLPNVIPTNKTNAEPKRPSRPVNITSNMNRYKKEHTVAVEWLADKRVWAAGVYFVHRVNSDILFKRLNQNVSRHRSLEVTKQEVIKKLSGGEDDIAMDRLNISLLDPLCKTRMTTPSRCQDCTHLQCFDLLSYLMMNEKKPTWQCPVCSSNCPYDRLIVDDYFLDMLAKVDKNTTEVELKEDGSYDVIKEEAFCISDDDDDDVVPATVNGTASCSSTNGNGLANEAAKKKPADDDIITLSDDDDEELNRGIMNSLNDSFSPGRHTASAELAAQKTPPQQKKKTKDDDIEIITLDDTPPRPVAASANLPMRQMSQQNQMPVGSSPSGMASTQMGMNEGASKTIRDALNKIGEQSANSSTQSSPLVQLHHTTHPLNFAQSSYMNPSSGSQTPTSQYGYSPMINQAPHFQMQNGLIGRNNQMVHMQQHHLQQQQQQQQSPQIMSPSFYAQQQMSNGGAFAYYPPQYPQQQYRQN	not soluble
MEFDPVKINTSSIDHVTILQYIDEPNDIRLTVCIIRNINNITYYINITKINPHLANRFRAWKKRIAGRDYMTNLSRDTGIQQSKLTETIRNCQKNKNIYGLYIHYNLVINVVIDWITDVIVQSILRGLVNWYIANNTYTPNTPNNTTTISELDIIKILDKYEDMYRVSKEKECGICYEVVYSKRLENDRYFGLLDSCNHIFCITCINIWHRTRRETGALDNCPICRTRFRKITMSKFYKLVN	not soluble
